Measured values taken from the supplement of paper PMC10567573.

B1: FBXO3 (parent)
chain: FIDTYSDVGRYIDHYAAIKKAWDD
B2: FEM1A (parent)
chain: PCCSSSPEEPLNGESYESCCPTSR

Variants of: B1
Experiment: protein stability index of a GFP-peptide fusion (GPS, HEK-293T) (PSI 1-6); higher = more stable
Details: c terminus: a fixed tail appended
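Also: lentivirally expressed fusions sorted by FACS into six bins by GFP to DsRed ratio, PSI derived from sequencing read proportions per bin multiplied by bin number.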

Protein stability index, by site and new letter:
K19: A 1.37 | M 3.18 | Y 1.64 | C 1.55 | P 1.74 | D 2.46 | N 1.88 | T 2.38 | L 1.92 | W 2.34 | G 1.91 | H 2.68 | F 1.84 | Q 2.07 | R 1.16 | S 1.02 | V 1.98 | I 2.39 | E 1.34
R10: T 1.83 | C 1.9 | Y 1.75 | F 2.23 | W 1.46 | S 2.1 | A 1.6 | E 2.56 | D 2.32 | V 2.86 | Q 2.58 | K 1.82 | M 1.75 | G 1.92 | H 1.56 | P 1.78 | N 1.88 | I 1.48 | L 1.85
D24: G 1.61 | S 1.44 | C 1.32 | T 2.51 | I 2.86 | Y 2.19 | H 2.7 | F 1.67 | Q 2.39 | K 1.58 | W 2.07 | E 2.4 | R 1.99 | L 1.79 | V 2.6 | P 2.28 | M 1.82 | A 2.83 | N 1.54
A16: N 1.12 | G 2.44 | W 1.84 | I 1.71 | V 2.6 | M 1.25 | Y 2.71 | S 1.93 | T 1.42 | F 1.69 | P 2.07 | C 2.08 | L 2.01 | E 1.89 | D 1.6 | H 2.12 | Q 1.81 | R 1.69 | K 2.04
A17: M 1.24 | L 1.83 | D 2.23 | R 1.98 | S 2.38 | E 1.72 | G 1.84 | V 2.18 | F 3.36 | C 1.92 | H 2.59 | K 1.92 | T 1.68 | Q 1.62 | N 1.63 | I 1.6 | Y 2.6 | P 2.17 | W 2
K20: H 1.7 | C 2.19 | W 2.86 | P 2.15 | L 1.54 | N 2.76 | V 1.44 | Q 1.68 | I 2.59 | F 2.08 | D 1.74 | A 2.16 | M 2.49 | E 2.29 | R 1.67 | Y 2.08 | G 1.81 | S 1.54 | T 1.61
D23: H 1.81 | Y 2.04 | L 1.61 | K 1.7 | A 1.74 | T 1.97 | I 3.3 | G 1.35 | N 2.29 | F 1.87 | M 2.56 | Q 1.44 | E 2.31 | S 1.64 | V 1.48 | R 1.72 | C 2.82 | P 2.1 | W 3.21
Y15: S 1.48 | G 1.87 | K 1.93 | T 1.82 | Q 2.96 | P 1.57 | W 2.08 | E 1.94 | R 2.61 | D 2.08 | C 2.24 | F 2.14 | M 1.55 | N 1.97 | H 2.32 | I 2.15 | V 1.99 | A 1.93 | L 1.53
A21: E 1.88 | K 1.88 | R 1.96 | T 2.23 | C 1.82 | F 1.96 | M 3.02 | N 2 | Y 1.85 | Q 1.82 | S 2.12 | V 1.22 | I 2.48 | D 3.43 | H 1.61 | L 1.72 | G 3.18 | W 1.7 | P 1.97
Y11: I 2 | Q 2.06 | A 1.82 | R 2.37 | W 2.39 | D 1.78 | C 1.66 | K 2.06 | S 2.2 | G 1.66 | N 2.25 | L 1.42 | V 1.93 | T 1.59 | F 1.89 | P 2.24 | E 1.38 | M 1.85 | H 1.78
I12: D 1.82 | R 2.27 | L 1.97 | M 1.72 | W 1.41 | C 2.21 | S 1.32 | A 2.21 | G 2.19 | P 2.05 | E 1.99 | Y 1.98 | Q 2.3 | N 1.78 | K 1.76 | F 2.09 | H 1.91 | T 1.93 | V 2
H14: D 2.7 | S 2.49 | M 1.75 | V 2.27 | T 1.71 | A 2.01 | R 2.38 | Y 1.82 | E 1.84 | C 2.31 | W 1.87 | L 1.66 | K 1.87 | N 1.58 | Q 1.63 | I 1.71 | P 2.38 | G 2.11 | F 2.19
I18: G 2.38 | L 2.11 | D 1.7 | W 1.74 | T 2.24 | Y 1.31 | E 1.97 | P 1.96 | K 2.41 | Q 1.54 | V 2.16 | C 1.94 | H 2.39 | R 1.7 | S 2.13 | F 2.12 | A 2.03 | N 1.46 | M 2.16
D13: H 2.06 | T 1.5 | M 2.07 | V 2.2 | I 2.88 | A 1.98 | C 1.77 | K 2.1 | G 2.6 | P 1.83 | L 2.24 | N 2.34 | Y 2.58 | S 1.84 | W 2.51 | Q 2.7 | R 1.3 | E 1.32
W22: M 1.64 | S 1.75 | E 2.1 | C 1.95 | L 2.29 | I 2.1 | K 3 | A 2.05 | D 2.05 | P 1.69 | H 2.02 | N 1.68 | Y 2.3 | Q 1.26 | R 1.86 | G 1.85 | F 1.39 | V 1.61 | T 1.95
G9: V 1.77 | Q 2.03 | H 1.9 | Y 2 | R 1.7 | N 2.05 | C 1.65 | P 1.85 | F 1.9 | W 1.83 | K 1.85 | D 1.57 | L 2.22 | M 3.14 | T 1.83 | E 2.15 | S 1.91 | I 1.75

Variants of: B2
Experiment: as above
Details: c terminus: a fixed tail appended

Protein stability index: each site, then its substitutions
C2: I 3.92 | H 4.79 | D 5.12 | K 4.65 | S 4.21 | P 5.66 | L 4.75 | E 4.77 | G 4.19 | Q 4.89 | M 4.98 | N 5.15 | F 4.55
P1: C 1.83 | K 2.47 | M 3.67 | H 3.85 | L 3.69 | E 4.44 | Q 3.95 | S 3.54 | W 2.77 | F 3.17 | G 4.6 | I 3.97 | V 3.84 | D 4.55 | A 4.21 | T 3.6 | R 3.47 | N 3.96 | Y 3.26
